± gives the uncertainty stated by the source.

First the molecules themselves.
B1: Peripheral plasma membrane protein CASK, residues 488 to 569; numbered along this chain, O14936 (parent)
chain: VRLVQFQKNTDEPMGITLKMNELNHCIVARIMHGGMIHRQGTLHVGDEIREINGISVANQTVEQLQKMLREMRGSITFKIVP

This data set covers variants of B1. The data set can be described thus: abundance fitness (aPCA) (normalised: wild type 0, dead -1); higher = more abundant; growth selection in yeast, the domain comes from the species named. The conditions noted are these: Homo sapiens.
For VRLVQFQKNTDEPMGITNKMNELNHCIVARIMHGGMIHRQGTLHVGDEIREINGISVANQTVEQLQKMLREMRGSITFKIVP, the abundance fitness is -0.918 ± 0.35.

In the case of VRLVQFQKNTDEPMGITVKMNELNHCIVARIMHGGMIHRQGTLHVGDEIREINGISVANQTVEQLQKMLREMRGSITFKIVP, the abundance fitness is -0.088 ± 0.029.

With VRLVQFQKNTDEPMGITLKMNELNHCIVARIMHGGMIHRQGTDHVGDEIREINGISVANQTVEQLQKMLREMRGSITFKIVP, the abundance fitness was -1.04 ± 0.11.

Regarding VRLVQFQKNTDEPMGITLKMNELNHCIVARIMHGGRIHRQGTLHVGDEIREINGISVANQTVEQLQKMLREMRGSITFKIVP, the abundance fitness was -0.092 ± 0.028.

Turning to VRLVQFQKNTDEPMGITLKMNELNHCIVARIMHGGPIHRQGTLHVGDEIREINGISVANQTVEQLQKMLREMRGSITFKIVP, the abundance fitness came out at 0.095 ± 0.048.

In the case of VRLVQFQKNTDEPMGITLKMNELNHCIVARIMHGGQIHRQGTLHVGDEIREINGISVANQTVEQLQKMLREMRGSITFKIVP, the abundance fitness is -0.014 ± 0.044.

Turning to VHLVQFQKNTDEPMGITLKMNELNHCIVARIMHGGMIHRQGTLHVGDEIREINGISVANQTVEQLQKMLREMRGSITFKIVP, the abundance fitness was -0.05 ± 0.061.

As to VRLVQFQKNTDEPMGITLKMNELNHCIVARIMHGGMIHRQGTLHVGDEIREINPISVANQTVEQLQKMLREMRGSITFKIVP, the abundance fitness is -0.911 ± 0.13.

VRLVQFQKNTDEPMGITLKMNELNHCIVARIMHGGMIHRQGTLHVGDEIREINGIWVANQTVEQLQKMLREMRGSITFKIVP: the abundance fitness was -0.275 ± 0.03.

Regarding VRLVQFQKNTDEPMGITLKMNELNHCIVARIMHGGMIHRQGTLHVGDEIREINGISVPNQTVEQLQKMLREMRGSITFKIVP, the abundance fitness is -0.327 ± 0.04.

Take VRLVQFQKNTDEPMGITLKMNELNHCIVARIMHGGMIHRQGTLHVGDEIREINGISVANQTVEQLQKMLREMRGSITFYIVP: the abundance fitness was -0.415 ± 0.054.

Consider VRLVQFQKNTDEPMGITLKMNELNHCIVARIMHGGMIHRQGTLHVGDEIEEINGISVANQTVEQLQKMLREMRGSITFKIVP, for which the abundance fitness is -0.068 ± 0.037.

For the variant VRLVQFQKNTDEWMGITLKMNELNHCIVARIMHGGMIHRQGTLHVGDEIREINGISVANQTVEQLQKMLREMRGSITFKIVP, the abundance fitness was -0.102 ± 0.098.

With VRLVQFQKNTDEIMGITLKMNELNHCIVARIMHGGMIHRQGTLHVGDEIREINGISVANQTVEQLQKMLREMRGSITFKIVP, the abundance fitness is -0.154 ± 0.054.

Turning to VRLVQFQKNTDEPMGITLKMNELNHCIVARIMHGGMIHRQGTLHVGDEIREINGISVANQTVEQLQKYLREMRGSITFKIVP, the abundance fitness was -0.045 ± 0.051.

VRLVQFQKNTDEPMGITLKMNELNHCIVARIMHGGMIHRQGTLHVGDEIREINGISVANQTVEQLQKMLREMKGSITFKIVP: the abundance fitness was determined as 0.007 ± 0.033.

In the case of VRLVQFQKNTDEPMGITLKMNELNHCIVARIMHGGMIHRQGTLHVGDEIREINGISVANQTVEQLQKMLREMMGSITFKIVP, the abundance fitness is -0.077 ± 0.032.

In the case of VRLVQFQKNTDEPMGITLKMNELNHCIVARIMHGGMIHRQGTLHVGDEIREINGISVANQTVEQLQKMLREMEGSITFKIVP, the abundance fitness was -0.02 ± 0.027.

VRLVQFQKNTDEPMGITLKMNELNHCIVARIMHGGMIHRQGTLHVGDEIREINGISNANQTVEQLQKMLREMRGSITFKIVP: the abundance fitness is -0.809 ± 0.11.

VRLVQFQYNTDEPMGITLKMNELNHCIVARIMHGGMIHRQGTLHVGDEIREINGISVANQTVEQLQKMLREMRGSITFKIVP: the abundance fitness was -0.093 ± 0.043.

With VRLVQFQKNTDEPMGITLKMNELNHCIVARIMHGGMIHRQGTLHVGDEIREINGISVANQTVEQLQKMLREMRGSITFKIAP, the abundance fitness was -0.054 ± 0.034.

As for VRLVQFQKNTDEPMGITLKMNELNHCIVARIMHGGMIHRQGTLHVGDEIREINGISVANQTVEQLQKMLREMRGSFTFKIVP, the abundance fitness was -0.173 ± 0.054.

Take VRLVQFQKNTDEPMGITLKMNELNHQIVARIMHGGMIHRQGTLHVGDEIREINGISVANQTVEQLQKMLREMRGSITFKIVP: the abundance fitness was -0.708 ± 0.059.

For the variant VRLVQFQKNTDEPMGITLKMNELNHCIVARIMHFGMIHRQGTLHVGDEIREINGISVANQTVEQLQKMLREMRGSITFKIVP, the abundance fitness was -0.385 ± 0.096.

Consider VRLVQFQKNTDEPMGITLKMNELNHCIVARIMHGGMIHRQGTLHVYDEIREINGISVANQTVEQLQKMLREMRGSITFKIVP, for which the abundance fitness is -1.02 ± 0.28.

As for VRLVQFQKNTDEPMGITLKMNELNHCIVARIMHGGMIHRQGTLHVFDEIREINGISVANQTVEQLQKMLREMRGSITFKIVP, the abundance fitness is -0.75 ± 0.17.

In the case of VRLVQFQKNTDEPMGITLKMNELNHCIVAWIMHGGMIHRQGTLHVGDEIREINGISVANQTVEQLQKMLREMRGSITFKIVP, the abundance fitness was -0.114 ± 0.034.

As for VRLVQFQKNTDEPMGITLKMNELNHCIVARIMHGGMIHRQITLHVGDEIREINGISVANQTVEQLQKMLREMRGSITFKIVP, the abundance fitness was -0.55 ± 0.069.

As to VRLVQFQKNTDEPMGITLKMNELNHCIVARIMHGGMIHRQGTLHVGDEIREINGISVANQTVEQLQKMTREMRGSITFKIVP, the abundance fitness was -0.097 ± 0.027.

For VRLVQFQKNTDEPMGITLKMNELNHCIVARIMHGGMIHRQGTLHVGDEIREINGISVANQTVEQLQKMLREMRHSITFKIVP, the abundance fitness is -0.355 ± 0.061.

As for VRLVQFQKNTDEPMGITLKMNELNHCIVARIMHGGMIHRQGTLHVGDEIREINGGSVANQTVEQLQKMLREMRGSITFKIVP, the abundance fitness is -0.124 ± 0.021.

For VRLVQFQKNTDEPMGITLKMNELNHCILARIMHGGMIHRQGTLHVGDEIREINGISVANQTVEQLQKMLREMRGSITFKIVP, the abundance fitness is -0.424 ± 0.03.

Take VRLVQFQKNTDEPMGITLKMNELNHCIVARIMHGGMIHRQGTLHVGDEIREINGISVANQTVEQLQKMLREMRGSITFKGVP: the abundance fitness is -0.408 ± 0.071.

For VRLVQFQKNTDEPMGITLKMNELNHCIVARIMHGGMIHRQGTLHVGDEIREINGISVANQTVEQLQKMLREMRGSITFKCVP, the abundance fitness is -0.074 ± 0.052.

The values above are taken from the Human Domainome abundance scans (Beltran et al. 2025).
